The nature of series [1]: pH and temperature dependence, stability and activity of recombinant acidic enzymes. In kind it is biochemical. On the procedure:
The acidic enzymes according to the invention were expressed in E. coli using the genomiccoding sequence for the respective enzyme from Ferroplasma acidiphilum, which are described in detail below. For enzymatic conversions, reaction conditions were in 100 mM sodium acetate buffer, 100 mM citrate buffer, 100 mM HEPES buffer for 2 minutes at 30° C., using p-nitrophenol propionate as the substrate for esterase, starch in the case of glycosidases, and HindIII digested λ DNA for ligase.
The activity was assayed using p-nitrophenol propionate as a substrate for esterase, starch for αGluFA and GlyFA1, GlyFA2, and HindIII digested λ DNA for LigFA.
The acidic enzymes according to the invention in vitro show similar elevated reaction temperatures. Substrates were as described for FIG. 2 above.
An overview of catalytic and molecular properties of acidic enzymes that were heterologously expressed in E. coli is given in the following Table III: […]

Series [2] is described as follows: Fe2+ content (ICP-MS) and Fe2+ dependence of activity, dialysis against EDTA. Format: biochemical. The note with it: relative to wild type = 100; after dialysis against 1 mM EDTA; 100 mM sodium citrate, 10 mM FeCl2. On the procedure: The UV-VIS absorption spectra of purified acidic enzymes are shown in FIG. 4, wherein the uninterrupted lines refer to Fe^2+ containing enzymes and the interrupted lines refer to enzymes after dialysis against EDTA containing buffer. The λ-max values found at ca. 572 nm correlate with the Fe^2+ content, i.e. disappear after incubation with EDTA or DTT for 24 h. ICP-MS analysis confirmed the presence of 0.82±0.10 mol Fe in EstFA, 0.34±0.08 mol Fe in αGluFA, […] and 0.63±0.09 mol Fe in LigFA.
In FIG. 5, relative activities of acidic enzymes with varying content of Fe^2+ are shown. For analysis, purified enzymes were incubated in 1 mM EDTA. At time intervals indicated, two aliquots were removed, one was used for hydrolysis of respective substrates, the other for ICP-MS analysis of Fe. For relative activities, activities before incubation with EDTA were used as 100% values.
When further investigating the dependence of the acidic enzymes according to the invention on Fe^2+, relative activity for EstFA, αGluFA and LigFA were investigated for their natural Fe^2+ content, e.g. wild-type, which was set to 100%, in comparison to the activity after dialysis against a 1 mM EDTA containing buffer.

B1: EstFA: acidophilic, Fe2+ dependent esterase from Ferroplasma acidiphilum, 308 amino acids, Seq ID No. 6 (protein, listed as Ferroplasma acidiphilum)
chain: INSLYILNHKVIIAVAVSAILIAMVFAGANIPYPGYNPTDHLISGKHPISNVSEVPKNFTLSGNVSNSNNNLPLSGTITVSNSTMSRTFNTSSNGSYNITLPQGNYSISSSIPGFQNYSSTINLDSNKTQNISTPPATTIGNGINQVPGSTNVSTLVPYLNNSIMSGGLNTDNITGTFDKNITIDLGKKLNNTQFVVLMKLDGAVYSYNWVTNGSGMAKLFLKYSGNYTMSAYTLYYNSSVIHYNTANNDTARFNMTERITFISSVILQSAVPLHDNSSVANSTLTVKGGVFSVPSLSVNSNLTGTYYKYEVPVGFYNFAYSNAHYVSKNFGVDVTGNSTVNKTIDPYLISINIRNNTGNTFNYTLGSTFYSGNGIHMATSGITTLLVFHDGKIVYDNTILLTSANPYYQLNLTISNKNLTFNGIETDSTNLSIVYSGNVTSNFYIASLEFENFSTSATNGMIIISGAASGSYPLDSGLYTYNMSQSLPTSAGNLTIKLVYDNDSKVSTDGRMTVEVYGYNISTLGNYITE
modifications: PEPTIDE (1)..(531) alpha Glu FA
Regarding B1, the “stability of purified enzyme” value in series [1] (20 mM citrate buffer, pH 1.5, room temperature) is reported as “stable”. Besides, the “enzymatic stability at elevated temperatures” value in series [1] (FIG. 2, LigFA pH 3.0, EstFA and αGluFA pH 2.0 at 40 and 50° C., GlyFA1 and GlyFA2 pH 4.0 at 40° C.) is “good stability”. Besides, the Optimum temperature in series [1] (measured at optimum pH) was 50 °C. Moreover, in series [1] (measured at optimum temperature), the “Optimum pH” value was 2.0-3.5. Moreover, the “stability at pH values above 5.0” value in series [1] (pH above 5.0) is “rapidly inactivated”. Further, the “activity, +EDTA” value in series [2] is listed as 0.30%.

The values are drawn from US8003357B2, “Acidophilic enzymes” (Helmholtz-Zentrum Fuer Infektionsforschung GmbH, priority 2005, dated 2011).
